Key:
Assay in all cases: DNS reducing sugar assay, Lineweaver-Burk
Assay type in all cases: biochemical, Bacillus amyloliquefaciens
Conditions in all cases: 50 mM PBS pH 7.5, 55 °C, 20 min
[1] = substrate: OC[C@H]1O[C@H](OC[C@H]2O[C@H](OC[C@H]3O[C@H](O[C@]4(CO)O[C@H](CO)[C@@H](O)[C@@H]4O)[C@H](O)[C@@H](O)[C@@H]3O)[C@H](O)[C@@H](O)[C@H]2O)[C@H](O)[C@@H](O)[C@H]1O
From the text: (§1) DNS reducing sugar assay, Lineweaver-Burk on CscA (inulin hydrolase)

[2] = substrate: OC[C@H]1O[C@H](OC[C@H]2O[C@H](O[C@]3(CO)O[C@H](CO)[C@@H](O)[C@@H]3O)[C@H](O)[C@@H](O)[C@@H]2O)[C@H](O)[C@@H](O)[C@H]1O
From the text: as §1

[3] = substrate: OC[C@H]1O[C@@](CO)(O[C@H]2O[C@H](CO)[C@@H](O)[C@H](O)[C@H]2O)[C@@H](O)[C@@H]1O
From the text: as §1

B1: CscA (inulin hydrolase) (Bacillus amyloliquefaciens DSM 7 = ATCC 23350) (protein)
chain: MDRIQQAEEALKKAEGKVKQRYRLGYHIMPRANWINDPNGLIQFKGEYHVFFQHHPFDENWGPMHWGHVKSKDLIHWEHLPIALAPGDAFDQSGCFSGSAVDDRGRLVLIYTGHNMIDPEKDLFYQTQNIAVSQDGAVFEKLQDNPVIAEPPEDSSRHFRDPKVWKHRGDWYMVVGNSTKENVGRVILYRSSDLRNWEYAGVLAQSDGHLGYMWECPDFFELGGKHVLLISPQGIEADGDSYKNLHQTGYLIGDYNDETNKFTHGAFKELDHGHDFYAVQTLLDDKGRRIAVGWMDMWESEMPTKADGWCGALTLPRELTLRDDHKLLMNPVEETKQLRKMKYRECAGRSVSGSYLAKTSEELLEVQVVYDVNDCDAETAGIKIRGLDEEELVLKYNLTDKKLTLDCTKMGKAKDGVRRVRMDASGKLALRIFIDRSSIEVFANHGEATMTSRIYPKEGRLGLELFSEKGAVKVEEFTYWTLKDIWKKS
notes: full-length ORF (1470 bp, 489 residues, no signal peptide), pET-28a BamHI/XhoI, His-tagged, expressed in E. coli BL21(DE3), Ni-NTA
With B1 the Km [1] was 19.08 ± 0.09 mM, the Vmax [1] was 687 µmol/min/mg and the kcat/Km [1] was 36500 ± 667 M⁻¹ s⁻¹. For the same protein, the Km [2] was 12.25 ± 0.07 mM, the Vmax [2] was 724 µmol/min/mg and the kcat/Km [2] was 57500 ± 1330 M⁻¹ s⁻¹. For the same protein, the Km [3] was 4.33 ± 0.03 mM, the Vmax [3] was 1760 µmol/min/mg and the kcat/Km [3] was 398000 ± 20000 M⁻¹ s⁻¹.

Reference: paper PMC6563369, “Systematic unravelling of the inulin hydrolase from Bacillus amyloliquefaciens for efficient conversion of inulin to poly-(γ-glutamic acid)” (Biotechnology for Biofuels, 2019)
